“Also recorded” adds a separate entry of the source. Like-named read-outs stand apart in the source and are kept apart here. Blank lines part the entries; values can stand above or below the molecule they belong to. Non-standard residues stand in square brackets, D forms with d. Primed or numbered codes have the meaning given here. *: point of attachment. DO3A10CM″ = chelating group at the N-terminus (X in the sequence tables); Bpa = N[C@@H](Cc1ccc(C(=O)c2ccccc2)cc1)C(=O)O; d2Nal = N[C@H](Cc1ccc2ccccc2c1)C(=O)O; pGlu = O=C1CC[C@@H](C(=O)O)N1; DO3A10CM = not defined here; Bpa4 = non-natural residue; Amfe4 = not defined here; Hpgly = not defined here; Mogly = not defined here; Tha = not defined here; azaGly = NNC(=O)O; Sar = CNCC(=O)O; 125I = [125I]*
Key:
[1] = tested on: LHRH-II-receptor-positive but LHRH-1-receptor-negative ovarian SK-OV-3 cell lines; details: cited from earlier work
kidney homogenate = details: female Tac:NCr:Foxn1^nu/nu mice, 37° C., up to 60 min
[2] = kidney homogenate stock solution; details: female Tac:NCr:Foxn1^nu/nu mice, 37° C., up to 60 min
[3] = plasma (blood) and urine samples collected post injection in normal mice; details: up to 60 min post injection
liver homogenate = details: female Tac:NCr:Foxn1^nu/nu mice, 37° C., up to 60 min
[4] = target: LHRH receptor (LHRH binding sites) on EFO-27 human ovarian cancer cells (human); assay: direct binding of 177Lu-labeled peptide to EFO-27 cells, single concentration
[5] = target: LHRH receptor (LHRH binding sites) on EFO-27 human ovarian cancer cells (human); assay: internalization/efflux study, cell-associated radioactivity, EFO-27 cells, 203 fmoles added/well
[6] = target: LHRH receptor (LHRH binding sites) on EFO-27 human ovarian cancer cells (human); assay: internalization/efflux study, cell-associated radioactivity, EFO-27 cells
[7] = target: LHRH receptor (LHRH binding sites) on EFO-27 human ovarian cancer cells (human); assay: internalization/efflux study, cell-associated radioactivity, EFO-27 cells, 200 fmoles added/well
[8] = target: LHRH receptor (LHRH binding sites) on EFO-27 human ovarian cancer cells (human); assay: saturation binding to EFO-27 cells, single-site fit
[9] = target: LHRH receptor (LHRH binding sites) on EFO-27 human ovarian cancer cells (human); assay: internalization/efflux study, cell-associated radioactivity, EFO-27 cells, 156 fmoles added/well
[10] = target: T1, LHRH binding sites on EFO-27 human ovarian cancer cells (human); assay: competition with [125I-Tyr8]BRU-2477 on EFO-27 cells
T1 chain: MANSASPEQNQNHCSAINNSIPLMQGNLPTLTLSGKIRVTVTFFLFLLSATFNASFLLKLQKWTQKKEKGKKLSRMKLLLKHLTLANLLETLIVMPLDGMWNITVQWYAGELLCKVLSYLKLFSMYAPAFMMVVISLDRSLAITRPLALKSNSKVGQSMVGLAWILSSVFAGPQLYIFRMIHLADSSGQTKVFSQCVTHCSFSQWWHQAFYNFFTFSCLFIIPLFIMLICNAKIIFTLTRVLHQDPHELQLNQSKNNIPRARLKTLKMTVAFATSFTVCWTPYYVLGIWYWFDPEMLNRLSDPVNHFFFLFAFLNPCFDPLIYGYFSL

[11] = target: T1, LHRH binding sites (presumed LHRH …); assay: as above
[12] = target: LHRH receptor (LHRH binding sites) on EFO-27 human ovarian cancer cells (human); assay: internalization/efflux study, cell-associated radioactivity, EFO-27 cells, 78 fmoles added/well
[13] = target: T1, LHRH binding sites (presumed LHRH …); assay: competition with [125I-Tyr8]BRU-2477 on EFO-27 cells
[14] = target: T1, LHRH binding sites (presumed LHRH …); assay: as above
[15] = target: LHRH binding sites on EFO-27 human ovarian cancer cells (human); assay: as above; remark: listed apart in the source
[16] = target: LHRH receptor (LHRH binding sites) on EFO-27 human ovarian cancer cells (human); assay: competition with [125I-Tyr8]BRU-2477 for binding to EFO-27 cells
[17] = target: LHRH binding sites on EFO-27 human ovarian cancer cells (human); assay: competition with [125I-Tyr8]BRU-2477 on EFO-27 cells; remark: listed apart in the source
[18] = target: LHRH receptor (LHRH binding sites) on EFO-27 human ovarian cancer cells (human); assay: competition with [125I-Tyr8]BRU-2477, EFO-27 cells
[19] = target: LHRH receptor (LHRH binding sites) on EFO-27 human ovarian cancer cells (human); assay: competition with [125I-Tyr8]BRU-2477 for binding to EFO-27 cells; remark: listed apart in the source
[20] = target: LHRH receptor (LHRH binding sites) on EFO-27 human ovarian cancer cells (human); assay: as above; remark: listed apart in the source
[21] = target: T1, LHRH binding sites (presumed LHRH …); assay: competition with [125I-Tyr8]BRU-2477 on EFO-27 cells
[22] = target: T1, LHRH binding sites (presumed LHRH …); assay: as above
[23] = target: LHRH receptor (LHRH binding sites) on EFO-27 human ovarian cancer cells (human); assay: internalization/efflux study, cell-associated radioactivity, EFO-27 cells, 205 fmoles added/well
[24] = target: LHRH receptor (LHRH binding sites) on EFO-27 human ovarian cancer cells (human); assay: internalization/efflux study, cell-associated radioactivity, EFO-27 cells, 212 fmoles added/well
[25] = target: LHRH receptor (LHRH binding sites) on PC-3 human prostate cancer cells (human); assay: internalization/efflux study, cell-associated radioactivity, PC-3 cells, 230 fmoles added/well
[26] = target: LHRH receptor (LHRH binding sites) on PC-3 human prostate cancer cells (human); assay: internalization/efflux study, cell-associated radioactivity, PC-3 cells
[27] = target: LHRH receptor (LHRH binding sites) on EFO-27 human ovarian cancer cells (human); assay: internalization/efflux study, cell-associated radioactivity, EFO-27 cells, 292 fmoles added/well
[28] = target: T1, LHRH binding sites (presumed LHRH …); assay: competition with [125I-Tyr8]BRU-2477 on EFO-27 cells

Molecule: LHRH-II: native Chicken II LHRH: pGlu-His-Trp-Ser-His-Gly-Trp-Tyr-Pro-Gly-NH2 (EHWSHGWYPG; HELM PEPTIDE1{[Glp].H.W.S.H.G.W.Y.P.G.[am]}$$$$V2.0; SMILES NC(=O)CNC(=O)[C@@H]1CCCN1C(=O)[C@H](Cc1ccc(O)cc1)NC(=O)[C@H](Cc1c[nH]c2ccccc12)NC(=O)CNC(=O)[C@H](Cc1c[nH]cn1)NC(=O)[C@H](CO)NC(=O)[C@H](Cc1c[nH]c2ccccc12)NC(=O)[C@H](Cc1c[nH]cn1)NC(=O)[C@@H]1CCC(=O)N1)
antiproliferative effect [1]: showed antiproliferative effect

B4: BRU-2769 (peptide)
peptide: DO3A10CM-[Sar]HWS[Tha][dR]W[Bpa]P[azaGly]-NH2
modifications: reading uncertain
EC50 [10]: 7340 nM
fold lower binding potency than BRU-2443 [11]: ~8 fold

B7: BRU-2723 (peptide)
peptide: DO3A10CM-[Sar]HWSH[dR]WRP[azaGly]-NH2
modifications: reading uncertain
notes: AA8 Arg
EC50 [14]: 2830 nM

B8: BRU-2666 (peptide)
peptide: XHWSHXWXPX
modifications: DO3A10CM on N-terminus; AA1 Dnal2; AA6 Darg; AA8 Bpa4; AA10 azaGly-NH2
EC50 [15]: 2600 nM
times more potent than the Sar1 analog (BRU-2443) [15]: 2 times
EC50 [16]: 390 nM
EC50 [17]: 470 nM
EC50 [18]: 470 nM

B9: BRU-2813 (peptide)
peptide: XRWSHXWXPX
modifications: as printed: DO3A10CM-Dnal2-Arg-Trp-Ser-His-Darg-Trp-Bpa4-Pro-azaGly-NH2
EC50 [19]: 420 nM
percent more potency than BRU-2666 [15]: 30%
EC50 [16]: 300 nM
EC50 [17]: 330 nM
EC50 [18]: 330 nM
EC50 [20]: 330 nM

B11: BRU-3064 (peptide)
peptide: DO3A10CM-[d2Nal]RWSH[dR]W[Bpa4]-OH
modifications: reading uncertain
EC50 [21]: 670 nM

B12: BRU-3046 (peptide)
peptide: XRWSHXW
modifications: DO3A10CM on N-terminus; AA1 Dnal2; AA6 Darg; AA8-AA10 absent; C-terminal free acid
EC50 [22]: 15900 nM
EC50 [21]: 15900 nM

B14: BRU-2767 (peptide)
peptide: DO3A10CM-[Sar]HWSH[dR]WP[azaGly]-NH2
modifications: not fully specified; reading uncertain
EC50 [14]: 10000 nM

B19: BRU-2724 (peptide)
peptide: DO3A10CM-[Sar]HWSH[dR]WWP[azaGly]-NH2
modifications: reading uncertain
notes: AA8 Trp
EC50 [14]: 2670 nM
EC50 [28]: 2670 nM

B20: BRU-2730 (peptide)
peptide: DO3A10CM-[Sar]HWSH[dR]WFP[azaGly]-NH2
modifications: reading uncertain
notes: AA8 Phe
EC50 [14]: 12900 nM

B22: BRU-2763 (peptide)
peptide: {DO3A10CM″}-[Sar]HWSH[dR]WHP[azaGly]-NH2
notes: AA8 His
EC50 [14]: 13600 nM

Now from value to molecule, other results behind:

cleaved bond (kidney homogenate): Bpa48-Pro9, major
cleaved bond [3]: Bpa48-Pro9, major
fragment found [3]: BRU-3046; BRU-2813[1-7]-OH
cleaved bond (liver homogenate): Bpa48-Pro9, major
Molecule: Lu-DOTA-Dnal2-Arg-Trp-Ser-His-Darg-Trp-Bpa4-Pro-azaGly-NH2
cleaved bond [2]: Bpa48-Pro9, major; also recorded: Trp7-Bpa48, major

% Bound [4]: 4.64%
Bound fmoles [5]: 4.1 fmol
Bound % [6]: 2.02%
B1: ^177Lu-BRU-2797 (peptide)
peptide: DO3A10CM-G[Hpgly]HWSH[dR]W[Bpa]P[azaGly]-NH2
modifications: reading uncertain; also: 177Lu complexed by DO3A10CM, printed as 177Lu-DO3A10CM-Gly-Hpgly-His-Trp-Ser-His-Darg-Trp-Bpa4-Pro-azaGly-NH2

% Bound [4]: 5.17%
Bound fmoles [7]: 10.2 fmol
Bound % [6]: 5.1%
B2: ^177Lu-BRU-2756 (peptide)
peptide: DO3A10CM-[Sar][Amfe4]WSH[dR]W[Bpa]P[azaGly]-NH2
modifications: reading uncertain; also: 177Lu complexed by DO3A10CM, printed as 177Lu-DO3A10CM-Sar-Amfe4-Trp-Ser-His-Darg-Trp-Bpa4-Pro-azaGly-NH2

Kd [8]: 1290 nM
Max. binding (Bmax) (pmoles/10^6 cells) [8]: 141
Receptors/cell (receptors/cell) [8]: 8.5e+07
Bound fmoles [9]: 1.87 fmol
Bound % [6]: 1.2%
B3: [Darg^6, ^125I-Tyr^8, azaGly^10]-LHRH-II (peptide)
peptide: [pGlu]HWSH[dR]WY(125I)P[azaGly]-NH2

Bound fmoles [12]: 0.93 fmol
Bound % [6]: 1.2%
B5: ^177Lu-BRU-2796 (peptide)
peptide: DO3A10CM-G[Mogly]HWSH[dR]W[Bpa]P[azaGly]-NH2
modifications: reading uncertain; also: 177Lu complexed by DO3A10CM, printed as 177Lu-DO3A10CM-Gly-Mogly-His-Trp-Ser-His-Darg-Trp-Bpa4-Pro-azaGly-NH2

fold lower binding potency than BRU-2813 [11]: ~8 fold
EC50 [13]: 2600 nM
B6: BRU-3110 (peptide)
peptide: DO3A10CM-[d2Nal]RESH[dR]W[Bpa]P[azaGly]-NH2
modifications: reading uncertain
notes: AA3 Glu

EC50 [13]: 560 nM
B10: BRU-3108 (peptide)
peptide: DO3A10CM-[d2Nal]RLSH[dR]W[Bpa]P[azaGly]-NH2
modifications: reading uncertain
notes: AA3 Leu

% Bound [4]: 13.2%
Kd [8]: 920 nM
Max. binding (Bmax) (pmoles/10^6 cells) [8]: 183
Receptors/cell (receptors/cell) [8]: 1.1e+08
Bound fmoles [23]: 25 fmol
Bound % [6]: 12.2%
B13: ^177Lu-BRU-2666 (peptide)
peptide: XHWSHXWXPX
modifications: 177Lu held by the N-terminal DO3A10CM: 177Lu-DO3A10CM-Dnal2-His-Trp-Ser-His-Darg-Trp-Bpa4-Pro-azaGly-NH2

% Bound [4]: 18.8%
Bound fmoles [24]: 40.5 fmol
Bound fmoles [25]: 44.3 fmol
Bound % [26]: 19.3%
Bound % [6]: 19.1%
B15: ^177Lu-BRU-2813 (peptide)
peptide: XRWSHXWXPX
modifications: 177Lu held by the N-terminal DO3A10CM: 177Lu-DO3A10CM-Dnal2-Arg-Trp-Ser-His-Darg-Trp-Bpa4-Pro-azaGly-NH2

EC50 [13]: 430 nM
B16: BRU-3106 (peptide)
peptide: XRFSHXWXPX
modifications: DO3A10CM on N-terminus; AA1 Dnal2; AA6 Darg; AA8 Bpa4; AA10 azaGly-NH2
notes: AA3 Phe

% Bound [4]: 23.5%
Bound fmoles [27]: 68.8 fmol
Bound % [6]: 23.6%
B17: ^177Lu-BRU-2968 (peptide)
peptide: XRWSHXWXP
modifications: 177Lu held by the N-terminal DO3A10CM: 177Lu-DO3A10CM-Dnal2-Arg-Trp-Ser-His-Darg-Trp-Bpa4-Pro-Da15o3pt

EC50 [13]: 250 nM
B18: BRU-3111 (peptide)
peptide: XRRSHXWXPX
modifications: DO3A10CM on N-terminus; AA1 Dnal2; AA6 Darg; AA8 Bpa4; AA10 azaGly-NH2
notes: AA3 Arg

% Bound [4]: 11.1%
Bound fmoles [7]: 19 fmol
Bound % [6]: 9.5%
B21: ^177Lu-BRU-2757 (peptide)
peptide: XHWSHXWXPX
modifications: 177Lu held by the N-terminal DO3A10CM: 177Lu-DO3A10CM-Damfe4-His-Trp-Ser-His-Darg-Trp-Bpa4-Pro-azaGly-NH2

Reference: US20120045393A1 (priority 2009, published 2012)
